Classification data for three substances are collected here from US20050282743A1, “Molecular interactions in cells” (Arbor Vita Corporation, priority 2001, published 2005).

Ends that are not written are not given here. * marks the point of attachment. Biotin = O=C1N[C@H]2[C@H](CS[C@H]2CCCCC(=O)*)N1

Assay in all cases: G' assay (10 uM PL peptide), results of TABLE 7 and TABLE 12
Format in all cases: binding

Assay [1] concerns the target T1, PDZ protein (GST-PDZ fusion) (Homo sapiens, UniProt Q9H190).
T1 construct: made in house; host or cells: E. coli (DH5alpha, BL21 or JM109)
T1 sequence (Q9H190 1-292): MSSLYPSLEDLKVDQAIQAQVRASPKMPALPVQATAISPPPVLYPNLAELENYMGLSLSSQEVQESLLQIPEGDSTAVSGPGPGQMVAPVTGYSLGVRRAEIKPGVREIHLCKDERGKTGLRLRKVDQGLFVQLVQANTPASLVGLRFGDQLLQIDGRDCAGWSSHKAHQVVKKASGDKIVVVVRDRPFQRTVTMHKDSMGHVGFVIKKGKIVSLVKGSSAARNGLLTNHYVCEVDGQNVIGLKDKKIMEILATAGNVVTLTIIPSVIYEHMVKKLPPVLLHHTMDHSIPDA
In outline: (§1)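 Same steps as the G-zero format, apart from a peptide concentration of 10 uM in place of 20 uM in step 2. Amino-terminally biotinylated PL peptides bind GST-PDZ fusions, and retained peptide is quantified by 450 nm absorbance.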

Assay [2] concerns the target T2, PDZ protein (GST-PDZ fusion) (Homo sapiens, UniProt Q76G19).
T2 construct: made in house; host or cells: E. coli (DH5alpha, BL21 or JM109)
T2 sequence (Q76G19 1-769): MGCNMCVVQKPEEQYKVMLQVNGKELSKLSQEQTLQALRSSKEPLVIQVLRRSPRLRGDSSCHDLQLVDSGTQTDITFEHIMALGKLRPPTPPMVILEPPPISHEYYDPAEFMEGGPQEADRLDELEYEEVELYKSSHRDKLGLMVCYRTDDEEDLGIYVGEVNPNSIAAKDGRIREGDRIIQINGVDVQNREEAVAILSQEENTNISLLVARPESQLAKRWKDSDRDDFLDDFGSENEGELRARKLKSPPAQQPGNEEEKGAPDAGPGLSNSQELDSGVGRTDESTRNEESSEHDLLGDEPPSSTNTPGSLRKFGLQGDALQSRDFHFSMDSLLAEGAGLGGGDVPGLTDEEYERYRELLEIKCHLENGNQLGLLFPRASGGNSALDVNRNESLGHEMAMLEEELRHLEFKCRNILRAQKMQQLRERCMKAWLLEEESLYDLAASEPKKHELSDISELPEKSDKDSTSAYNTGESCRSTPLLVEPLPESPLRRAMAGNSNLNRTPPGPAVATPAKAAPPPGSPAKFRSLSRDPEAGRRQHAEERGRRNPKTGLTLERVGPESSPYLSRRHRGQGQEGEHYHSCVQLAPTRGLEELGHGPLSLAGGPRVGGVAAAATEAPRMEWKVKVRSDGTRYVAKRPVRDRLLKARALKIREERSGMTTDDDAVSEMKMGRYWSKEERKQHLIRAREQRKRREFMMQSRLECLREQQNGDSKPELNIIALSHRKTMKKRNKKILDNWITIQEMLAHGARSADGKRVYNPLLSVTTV
Particulars: PDZ LU1, PDZ Domain 1. In outline: as §1

Assay [3] deals with T3, PDZ protein (GST-PDZ fusion) (Homo sapiens, UniProt Q9NZW5).
T3 construct: made in house; host or cells: E. coli (DH5alpha, BL21 or JM109)
T3 sequence (Q9NZW5 1-540): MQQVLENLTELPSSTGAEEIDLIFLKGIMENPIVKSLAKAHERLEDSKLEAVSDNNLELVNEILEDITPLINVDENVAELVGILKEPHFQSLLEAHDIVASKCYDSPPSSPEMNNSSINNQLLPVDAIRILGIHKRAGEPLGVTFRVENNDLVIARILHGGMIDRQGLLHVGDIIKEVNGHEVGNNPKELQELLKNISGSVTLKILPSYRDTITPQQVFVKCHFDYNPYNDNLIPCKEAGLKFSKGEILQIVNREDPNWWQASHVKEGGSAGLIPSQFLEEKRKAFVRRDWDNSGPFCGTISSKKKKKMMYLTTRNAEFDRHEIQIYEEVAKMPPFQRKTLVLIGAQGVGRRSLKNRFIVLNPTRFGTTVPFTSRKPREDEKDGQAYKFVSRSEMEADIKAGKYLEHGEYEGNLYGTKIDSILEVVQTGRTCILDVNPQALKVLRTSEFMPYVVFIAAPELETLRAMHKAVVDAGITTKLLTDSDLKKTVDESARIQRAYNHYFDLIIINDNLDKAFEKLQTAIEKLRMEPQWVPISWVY
Particulars: PDZ P55T, PDZ Domain 1. Put shortly:
as §1

Turning to “A2AA_HUMAN (modified) (Biotin-HDFRRAFKKILARGDRKRIV; not fully specified)”, the Classification is 4 (A450 nm 3-4) in assay [1] (PDZ SITAC-18, PDZ Domain 1) and 4 (A450 nm 3-4) in assay [1] (PDZ SITAC-18, PDZ Domain 2).
Consider “A2AC_HUMAN (Modified) (Biotin-DFRPSFKHILFRRARRGFRQ; not fully specified)”, for which, in assay [2], the Classification is 4 (A450 nm 3-4).
In the case of “KTMPAAMFRLLTGQETPLYI (Biotin-KTMPAAMFRLLTGQETPLYI) [MINT-2]”, the Classification in assay [3] was 1 (A450 nm 0-1).
